Residue numbers refer to the chain shown, from its start. Numbers in names are those of the source.
T1: Human ALPP (leucine zipper) (human)
T1 construct: Soluble human ALPP fused to a disulphide stabilised leucine zipper and a His tag; The whole entry is the construct; also called hALPP; PLAP
T1 chain: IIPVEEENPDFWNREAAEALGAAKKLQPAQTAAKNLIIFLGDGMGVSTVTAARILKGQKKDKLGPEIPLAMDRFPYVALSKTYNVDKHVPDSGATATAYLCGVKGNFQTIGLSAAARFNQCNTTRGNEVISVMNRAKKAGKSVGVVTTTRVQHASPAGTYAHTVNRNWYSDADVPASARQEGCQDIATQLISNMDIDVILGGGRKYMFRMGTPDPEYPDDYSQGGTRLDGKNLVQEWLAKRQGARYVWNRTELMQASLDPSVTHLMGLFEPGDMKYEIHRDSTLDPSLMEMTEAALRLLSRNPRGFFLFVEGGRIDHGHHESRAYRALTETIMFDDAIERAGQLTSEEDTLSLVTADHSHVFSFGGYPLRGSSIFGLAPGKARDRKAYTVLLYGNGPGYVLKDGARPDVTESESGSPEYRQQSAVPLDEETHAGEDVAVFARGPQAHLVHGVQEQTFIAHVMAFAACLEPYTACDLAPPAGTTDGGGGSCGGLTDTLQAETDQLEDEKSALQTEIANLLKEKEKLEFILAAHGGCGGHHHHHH

T2: ALPI His homodimer (human, UniProt P09923 20-503)
T2 construct: Whole entry with His tag; used in ELISA and BLI; also called hALPI
T2 sequence: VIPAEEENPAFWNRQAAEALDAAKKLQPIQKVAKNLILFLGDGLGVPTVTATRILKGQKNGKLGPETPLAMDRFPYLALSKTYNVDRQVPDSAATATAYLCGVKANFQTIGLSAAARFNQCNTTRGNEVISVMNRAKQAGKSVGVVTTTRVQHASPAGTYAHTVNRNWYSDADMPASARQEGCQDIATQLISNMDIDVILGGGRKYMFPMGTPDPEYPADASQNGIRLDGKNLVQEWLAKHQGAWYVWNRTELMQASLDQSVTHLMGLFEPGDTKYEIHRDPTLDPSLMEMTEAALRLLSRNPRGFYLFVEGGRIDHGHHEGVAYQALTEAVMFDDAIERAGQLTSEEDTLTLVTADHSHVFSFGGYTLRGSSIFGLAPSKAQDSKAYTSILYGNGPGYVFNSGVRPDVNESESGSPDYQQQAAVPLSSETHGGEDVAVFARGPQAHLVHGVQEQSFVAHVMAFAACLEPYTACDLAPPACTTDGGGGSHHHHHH

T3: Human ALPL (leucine zipper) (human)
T3 construct: Whole entry: fused with a cysteine stabilised leucine zipper and His tag; also called hALPL
T3 chain: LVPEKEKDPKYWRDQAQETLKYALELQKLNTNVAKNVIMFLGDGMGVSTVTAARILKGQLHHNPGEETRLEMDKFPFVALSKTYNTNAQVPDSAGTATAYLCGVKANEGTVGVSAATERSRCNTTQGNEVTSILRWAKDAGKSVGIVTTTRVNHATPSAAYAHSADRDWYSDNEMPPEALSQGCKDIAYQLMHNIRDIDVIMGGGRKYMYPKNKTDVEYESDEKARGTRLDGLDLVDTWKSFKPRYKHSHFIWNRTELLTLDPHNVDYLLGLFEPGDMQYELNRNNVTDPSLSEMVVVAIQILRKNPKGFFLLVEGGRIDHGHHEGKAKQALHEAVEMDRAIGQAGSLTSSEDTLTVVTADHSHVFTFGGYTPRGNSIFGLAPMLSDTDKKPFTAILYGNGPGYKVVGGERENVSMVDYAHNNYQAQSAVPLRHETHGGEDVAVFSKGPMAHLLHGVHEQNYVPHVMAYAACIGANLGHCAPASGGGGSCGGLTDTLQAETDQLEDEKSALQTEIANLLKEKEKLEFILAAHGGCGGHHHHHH

T4: Human ALPP (leucine zipper) (human)
T4 construct: Whole entry: ALPP fused with a cysteine stabilised leucine zipper and His tag; also called hALPP
T4 chain: T1 chain

B1: A06 E10-hFc (S239C + S442C), mixed linkers (A06 - [G4S]1, E10 - [G4S]3) (Fc fusion)
chain 1: QVHLVESGGGLVQAGGSLRLSCAASGRTFLSMGWFRQAPGKEREFVAAISWTGGSTGYADSVKGRFTISRESDKETMYLQMNSLKPEDTAVYYCAARGDVYYGGDDATRYKYWGQGTQVTVSSGGGGSEPKSSDKTHTCPPCPAPELLGGPCVFLFPPKPKDTLMISRTPEVTCVVVDVSHEDPEVKFNWYVDGVEVHNAKTKPREEQYNSTYRVVSVLTVLHQDWLNGKEYKCKVSNKALPAPIEKTISKAKGQPREPQVYTLPPSRDELTKNQVSLYCLVKGFYPSDIAVEWESNGQPENNYKTTPPVLDSDGSFFLYSKLTVDKSRWQQGNVFSCSVMHEALHNHYTQKSLCLSPGK
chain 2: QVQLVESGGGLVQAGGSLRLSCAVSGRALSDYNIGWFRQAPGKEREFVARKTWDGSSTRYDDSVKGRFTVSIEDAKNTAYLQMSSLKTEDTAVYYCAAGRYSRARGWEYDYWGQGTQVTVSSGGGGSGGGGSGGGGSEPKSSDKTHTCPPCPAPELLGGPCVFLFPPKPKDTLMISRTPEVTCVVVDVSHEDPEVKFNWYVDGVEVHNAKTKPREEQYNSTYRVVSVLTVLHQDWLNGKEYKCKVSNKALPAPIEKTISKAKGQPREPQVYTLPPSRDELTKNQVSLTCLVKGFYPSDIAVEWESNGQPENNYKTTPPVLDSDGSFFLTSKLTVDKSRWQQGNVFSCSVMHEALHNHYTQKSLCLSPGK
notes: Biparatopic heterodimer; also called #707
B2: A06 F05-hFc (S239C + S442C), mixed linkers (A06 - [G4S]1, F05 - [G4S]3) (Fc fusion)
chain 1: B1 chain 1
chain 2: B1 chain 2 with V24A, L29F, S30G, K51R, E73D, D74N, S84N, A104V
notes: Biparatopic heterodimer; also called #708
B3: A08 (VHH, not shown: small tags and cut ends)
VHH: QVQLVESGGGLVQAGESLRLACAASGTIFSGNAVGWYRQAPEKQREWVSSITDYGDTDYAEAVKGRFTISRDNAKNTVYLQMNSLKPEDTAVYYCYVYQRGESEEYWGQGTKVTVSS
B4: C06 (VHH, not shown: small tags and cut ends)
VHH: QVQLVESGGGLVQPGGSLRVSCAASGPSLSNYAMGWFRQAPGKEREFVAGISWGGGRTSYTDSVKGRFTISRDNAKNTVYLQMNNLKPEDTGVYYCAGRYGRGRNVEYEYDYWGQGTQVTVSS
B5: B11 (VHH, not shown: small tags and cut ends)
VHH: B4 VHH with Q3H, L11S, P14A, V20L
B6: D08 (VHH, not shown: small tags and cut ends)
VHH: B4 VHH with Q3H, L11S, P14A, V20L, Q118K
B7: D11 (VHH, not shown: small tags and cut ends)
VHH: B4 VHH with L11S, P14A, V20L, Q118M
B8: C05 (VHH, not shown: small tags and cut ends)
VHH: QVQLVESGGGLVQAGGSLRLSCAASRRSFSEYAMGWFRQAPGKEREFVAAIGWSGVIEYADSVKGRFTISRDNAKDTVYLQMNSLKPEDTAVYYCAAGLGIRVVSQTPAYWGQGTQVTVSS

Molecular target: T1, Human ALPP (leucine zipper)
Assay: BLI, KD app (antigen immobilised on AR2G sensor)
Procedure: Binding kinetics were determined using the Biolayer Interferometry (BLI) Octet K2 or R4 system (Sartorius). […] For KD apparent measurements, the ALPP proteins were immobilised in sodium acetate pH5 buffer to AR2G sensors using amine coupling. To measure 1:1 interactions, AHC biosensors were used to immobilise Fc-fused proteins. All assays were conducted in HBS-EP with a plate temperature of 25° C. Ka (M⁻¹s⁻¹), Kd (s⁻¹) and KD (nM) values were determined using Octet Data Analysis High Throughput software (Sartorius) for Biolayer Interferometry.

Binder | kon [M⁻¹ s⁻¹]
B1 | 421000
B2 | 426000

Molecular target: T2, ALPI His homodimer
Assay: ELISA, antigen coated
Text: ELISA was used to test the binding and specificity of the VHHs. […] Anti-Llama—HRP antibody was used for detection.

Binder | binding result
B3 | no binding (tested: 500 ng VHH)
B4 | no binding (tested: 500 ng VHH)
B5 | no binding (tested: 500 ng VHH)
B6 | no binding (tested: 500 ng VHH)
B7 | no binding (tested: 500 ng VHH)
B8 | no binding (tested: 500 ng VHH)

Molecular target: T3, Human ALPL (leucine zipper)
Assay: BLI, antigen immobilised
Procedure: (§1) Binding kinetics were determined using the Biolayer Interferometry (BLI) Octet K2 system (Sartorius). […] All assays were conducted in PBS with a plate temperature of 25° C. Ka (M⁻¹s⁻¹), Kd (s⁻¹) and KD (nM) values were determined using Octet Data Analysis High Throughput software (ForteBio) for Biolayer Interferometry.

Binder | binding result
B3 | no binding
B4 | no binding
B5 | no binding
B6 | no binding
B7 | no binding
B8 | no binding

Molecular target: T4, Human ALPP (leucine zipper)
Assay: BLI, antigen immobilised
Procedure: as §1

Binder | Kd [pM] | koff [s⁻¹] | kon [M⁻¹ s⁻¹]
B3 | 30 | 1.2e-05 | 429000
B4 | < 10 | < 1e-07 | 368000
B5 | – | – | 213000
B6 | < 10 | < 1e-07 | 175000
B7 | < 10 | < 1e-07 | 97700
B8 | < 10 | < 1e-07 | 394000

Source: patent publication US20260216242A1 (ALMAC DISCOVERY, published 2026)
